One substance from publication PMC12316308, “Interactions of substrates and phosphinyl containing inhibitors with bacterial and human zinc proteases” (PLOS One, 2025) can be followed below.

This series deals with T1, COc1ccc2c(CC(=O)N3CCC[C@H]3C(=O)N[C@@H](CC(C)C)C(=O)NCC(=O)N[C@@H](CC(C)C)C(=O)N[C@@H](CNc3ccc([N+](=O)[O-])cc3[N+](=O)[O-])C(=O)N[C@@H](C)C(=O)N[C@@H](CCCNC(=N)N)C(N)=O)cc(=O)oc2c1.
T1 construct: made in house; host or cells: Sf9 and High Five insect cells
Description: Determination of Km values. The series is classed as biochemical, human. The settings on record: other: MMP-9(MT); 1% DMSO; n = 3; pH 7.5.
Description: Determination of Km values. […] Substrate concentrations used were 1–10 µM in a total volume of 100 µL of 0.1 M Hepes pH 7.5 containing 10 mM CaCl2, 0.005% Brij-35 and 1.0% DMSO. […] Initial rate experiments were performed as described above to determine enzyme reaction velocities using a LS 50 Luminescence Spectrometer and the FL WinLab Software Package (Perkin Elmer). The Km and s.d values were calculated with Graph Pad Prism 5 using the Michaelis-Mention equation. […] During these experiments, reactions were monitored for only one minute, and initial reaction velocities were determined from the activity curves.

Chain of Mag-Trypsin activated recombinant MMP-9 (MMP-9(MT)) (Homo sapiens) (chain, as listed by the source): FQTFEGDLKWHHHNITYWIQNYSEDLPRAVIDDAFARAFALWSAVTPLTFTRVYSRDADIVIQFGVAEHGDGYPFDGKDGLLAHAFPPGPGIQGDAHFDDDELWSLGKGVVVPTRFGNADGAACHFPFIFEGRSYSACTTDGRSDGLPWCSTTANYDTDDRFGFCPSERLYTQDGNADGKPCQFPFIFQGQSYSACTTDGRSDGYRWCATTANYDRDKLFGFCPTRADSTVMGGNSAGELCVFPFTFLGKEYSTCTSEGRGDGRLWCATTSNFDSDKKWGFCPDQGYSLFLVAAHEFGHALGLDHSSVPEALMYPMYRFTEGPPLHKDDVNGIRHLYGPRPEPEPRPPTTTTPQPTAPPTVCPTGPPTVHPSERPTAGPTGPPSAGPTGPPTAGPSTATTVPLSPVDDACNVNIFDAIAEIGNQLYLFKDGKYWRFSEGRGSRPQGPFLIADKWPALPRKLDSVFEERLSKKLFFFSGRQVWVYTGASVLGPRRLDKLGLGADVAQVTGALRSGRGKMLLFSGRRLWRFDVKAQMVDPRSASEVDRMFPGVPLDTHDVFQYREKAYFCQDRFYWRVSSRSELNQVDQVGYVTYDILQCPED

As to “Mag-Trypsin activated recombinant MMP-9 (MMP-9(MT)) (Homo sapiens)”, the Km is 2.7 ± 0.5 µM.

By Km is commonly meant the substrate concentration at which the rate is half of its maximum.
